{"source": "the nanobody polyreactivity screen of Harvey et al. (2022)", "data": [{"experiment": "yeast display, Sf9 membrane polyspecificity reagent, FACS + sequencing; frameworks hold sequencing errors", "procedure,_shortened": "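A nanobody's polyreactivity label depends on the gate it was sorted from. Yeast display cells were stained with 10% biotinylated, detergent-solubilized Sf9 membrane reagent for 1 hour at 4 °C, enriched on streptavidin microbeads and sorted by FACS. The low and high (top ~1%) gates were set on anti-HA fluorescence for expression and streptavidin fluorescence for reagent binding.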", "values": [{"sequence": "QVQLVESGGGLVQAGGRLRLSCAASGFIFSYYAMAWYIQAPGKERELVAAISSAGSTYYADSVKGRFTISRDNAKNTVYLQMNSLKPEDTAVYYCAAAIWYIKLYFVRRTEHGYWGQGTQVTVSS", "polyreactivity (PSR sort gate)": "low polyreactivity"}, {"sequence": "QVQLVESGGGLVQAGGSLRLSCAASGRIFSHYAMGWYRQAPGKERELVAAINRSGGSTYYADSVKGRFTISRDNAKNTVYLQMNSLKPEDTAVYYCAADVKYGYDWGQGTQVTVSS", "polyreactivity (PSR sort gate)": "high polyreactivity"}, {"sequence": "QVQLVESGGGLVQAGGSLRLSCAASGRIFSAYAMGWYRQAPGKERELVAAISRSRGRTYYADSVKGRVTISRDNAKNTVYLQMNSLKPEDTAVYYCAAARFAIVRGDYWGQGTQVTVSS", "polyreactivity (PSR sort gate)": "high polyreactivity"}, {"sequence": "QVQLVESGGGLVQAGGSLRLSCAASGSILYAYAMGWYRQAPGKERELLAAISSSGGGTYADSVKGRFTISRDNAKNTVYLQMNSLKPEDTAVYYCNADARGGIYFRGVKFDYWGQGTQVTVSS", "polyreactivity (PSR sort gate)": "high polyreactivity"}, {"sequence": "QVQLVESGGGLVQAGGSLRLSCAASGSIFAVYAMGWYRQAPGKEREFVARISWGGGRTYYADSVKGRCTISRDNAKNPVYLQMNSLKPEDTAVYYCAATFRARPRENYWGQGTQVTVSS", "polyreactivity (PSR sort gate)": "high polyreactivity"}, {"sequence": "QVQLVESGGGLVQAGGSLRLSCAASGFIIVRYAMGWYRQAPGKERELVASITKSGGSTYYADSVKGRFTISRDNAKNTVYLQMNSLKPEDTAVYYCAATVVSRTRYYYRGQRYDYWGQGTQVTVSS", "polyreactivity (PSR sort gate)": "high polyreactivity"}, {"sequence": "QVQLVESGAGLVQAGGSLRLSCAPSGRIFEYNAMGWYRQAPGKESELVAAIRSGGGSTYYADSVKGRFTISRDNAKNTVYLQMNSLNPEDTAVYYCAARRKRVSFYAEYDYWGQGTQVTVSS", "polyreactivity (PSR sort gate)": "low polyreactivity"}, {"sequence": "QVQLVESGGGLVQAGGSLRLSCAASGSIFKYYAMGWYRQAPGKERELVAAISRSGTSTYYADSVKGRFTISRDNAKNTVYLQMNSLKPEDTAVYYCNAVGISQFAKYGWRYDYWGQGTQVTVSS", "polyreactivity (PSR sort gate)": "high polyreactivity"}, {"sequence": "QVQLVESGGGLVQAGGSLRLSCAASGFIFYQYAMGWYRQAPGKERELVATISFRGGRTYYADSVKGRFTISRDNAKNTVYLQMNSLKPEDTAVYYCNAKRVSSRFYKWDYYWGQGTQVTVSS", "polyreactivity (PSR sort gate)": "high polyreactivity"}, {"sequence": "QVQLVESGGGLVQAGGSLRLSCAASGSIFVTYAMGWYRQAPGKERELVASITLSGGSTYYADSVKGRFTISRDNAKNTVYFQKNSLKPEDTEVYYCNAEGTSWTSTRFDYWGQGTQVTVSS", "polyreactivity (PSR sort gate)": "high polyreactivity"}, {"sequence": "QVQIVESGGGLVQAGGSLRLSCSASGSTFPFYAMGWYRQAPGKERELVAAITRSGSRTYYADSVKGRFTISRDNAKNTVFLQMNSLKPEDTAVYYFAASSTDLYFWGQGTQVTVSS", "polyreactivity (PSR sort gate)": "high polyreactivity"}, {"sequence": "QVQLVESGGGLVQAGGSLRLSCAASGFTFIVNPMGWYRQAPGKERELVAAISWNGGSTYYADSVKGRFTISRDNAKNTVYLQMNSLKPEDTAVYYCAVLYRSEYVWGQGTQVTVSS", "polyreactivity (PSR sort gate)": "low polyreactivity"}, {"sequence": "QVQLVESGGGLVQAGGILRLSCAASGRTLSKNAMGWYRQAPGKERELVATISSVGRTNYADSVKGRFTISRDNEKITVYLQMISLKPEDTAVYYCSARRFRGSYYWGQGTQVTVSS", "polyreactivity (PSR sort gate)": "high polyreactivity"}, {"sequence": "QVQLVESGGGLVQAGGSLRLSCAASGSIFEGYVMGWYRQAPGKERELVAAITTGGGSTYYADSVKGRFTISRDNAKKTVYLQMNSLKPEDTAVYYCAKDYWFGYEYWGQGTQVTVSS", "polyreactivity (PSR sort gate)": "low polyreactivity"}, {"sequence": "QVHLVESAAGLVQAGGSLRLSCDPSGFTFYAYPMGWYSQAPGKEREFVAAISSRGGRTYYADSVKGRFTISRDNAKNTVYLQMNSLKPEDTAVYYCNVPYYSFRALSSYYWGQGTQVTVSS", "polyreactivity (PSR sort gate)": "high polyreactivity"}, {"sequence": "QVQLVESGGGLVQAGGSLRLTCAASGNTFYPYAMGWYRQGPGKERELVAAITSSGGSTYYADSVKGRFTISRDNANNTVYLQMNSLKPEDTAVYYCAADPDWYSPFKYVYWGQGTQVTVSS", "polyreactivity (PSR sort gate)": "low polyreactivity"}, {"sequence": "QVQLVESGGGLVQAGGSLRLTCAASGRIFAHYAMGWYRPAPGKERELVAAISSGGSTYYADSVKGRFTISRDNAKNTVYLLMNSLKPEDTAVYYCNKRPVRRKYDYWGQGTQVTVSS", "polyreactivity (PSR sort gate)": "low polyreactivity"}, {"sequence": "QDQLVESGGGLVQAGGSLRLSCAASGSIFRVYAMGRYRQAPGKERELVAAISSIVGSTYYADSVKGRFTISRDNAKNSVYLQMNSLKPEDTAVYDCNKEGTWPRTGSEYDSWGQGSQVTVSS", "polyreactivity (PSR sort gate)": "low polyreactivity"}, {"sequence": "QVQLVESGGGLVQAGGILRLSCAASGSTLGYYAMGWYRQAPGKERELVAAISWSGGRTYYADSVKGRFTISRDNAKNTVYLQMNSLKQEDTAFYYCNALNRTHYTGSDFYSWGQGTQVTVSS", "polyreactivity (PSR sort gate)": "high polyreactivity"}, {"sequence": "QVQLVESGGGLVQAGGSLRLSCAASGSIFRTYAMGWYRQAPGKESELVAAISRSGSSTYYADSVKGRFTISRDNAKNTVYLQRTSLQPEDTAVYYCAAYWPLSYGARGSNYWGQGTQVTVSS", "polyreactivity (PSR sort gate)": "high polyreactivity"}, {"sequence": "QVQLVESGGGLVQAGGSLRLSCAASGSIFKLYALGWYRPAPGKERELVAAISLSDGGTYYADSVKGRFTISRDNPKNTVYLQMNSLKPEDTAVYYCNKYYWYPYGRAHDYGYWGQGTQVTVSS", "polyreactivity (PSR sort gate)": "high polyreactivity"}, {"sequence": "QVQLVESGGGLVQAGGSLRLSCAASGITFATNTMGWYRQAPGKERELVASINYRGGSTYYADSVKGRFTISRDNAKNTVYLQMNSLKPEDTAVYYCNADIYLEYDYWGQGTQVTVSS", "polyreactivity (PSR sort gate)": "low polyreactivity"}, {"sequence": "HLHLPERVGGLVHAGGSLRLSSAASGYISWAGYMGWYRQPPGKERELVATISYGTSTSYADSVKGRFTISRDNAKNSVYLQMNSLKPEDSAVYYCNADWVFTWYDYPNDKYDYWGQGTQVTVSS", "polyreactivity (PSR sort gate)": "low polyreactivity"}, {"sequence": "QVQLVESGGGLVQAGGSLRLSCAASGFIFDQYDMGWYRQAPGKERELVAAISDSGGSTYYADSVKGRFTISRDNAKNTVYLQMNSLKPEDTAVYYCAAGSYLAFGGLWFYYWGQGTQVTVSS", "polyreactivity (PSR sort gate)": "high polyreactivity"}, {"sequence": "QVQLEESGRGLVQAGGSLRLSCAASGFTFRIYAMGWYRQAPGKGREFVAAITWSSGSTYYADSVKGRFTISRDNAKITVYLQMNSLKPEDTAVYYCAATYRFFPPRYYYWGQGTQVTVSS", "polyreactivity (PSR sort gate)": "high polyreactivity"}, {"sequence": "QVQLVESGGGLVQAGGSLRLSCPASGRIYDYNGMRWYRQAPRKERELVAAITSSGSRTYYADSVKGRFTISRDNAKNTVYFQMNSLKPEDTAVYYCARGGGRRKGLVDYWGQGTQVSVSS", "polyreactivity (PSR sort gate)": "low polyreactivity"}, {"sequence": "QVQLVESGGGLVQAGGSLRLSCAASGRNFPVNAMGWYRQAPGKERELVATISYSGSSTYYADSVKARFTISRDNAKNTVYLQMNSLKPEDTAVYYCNADAESFDDGYWGQGTEVTVSS", "polyreactivity (PSR sort gate)": "low polyreactivity"}, {"sequence": "QVQLVESGGGLVQAGGSLRLSCAASGSIFGSNMGWYRQAPGKERELVAAISSRGGRTYYADSVKGRFTISRDNAKNTVYLQMNSLKPEDTAVYYCATRTFRGCRGYEYWGQGTQVTVSS", "polyreactivity (PSR sort gate)": "high polyreactivity"}, {"sequence": "QVQLVESGGGLVQAGGSLRLSCAASGSTFVDKAMGWYRQAPGKERELVATISSGGSTYYADSVKGRFTISRDNAKNTVYLQMNSLKPEDTAVYYCNADGNKRYPWVDYWGQGTQVTVSS", "polyreactivity (PSR sort gate)": "low polyreactivity"}, {"sequence": "QVQLVESGGGLVQAGGSLRLSCAASGRTFGRNAMGWYRQAPGKERELVAAITWSGGSTYYADSVKGRFTISRDNAKNTVYLQMNSLKPEDTAVYYCAADRSRWGQGTQVTVSS", "polyreactivity (PSR sort gate)": "high polyreactivity"}, {"sequence": "QVQLVESGGGLVQAGGSLRLSCAASGRTFRRYTMGWYTQAPGKVRELVAAITTSGGSTYYADSVKGRFTISRDNAKHTVYLQMNSLKPEDTAVYYCAATRRYSGDFWGQGTQVTVSS", "polyreactivity (PSR sort gate)": "high polyreactivity"}, {"sequence": "QVQLVESCGGLVQAGGSLRLSCAASGLTFYQNDMGWYRQAPGKERELVAAITLSGDITYYADSVKGRFTISRDNAKNTVYLQMNSLKPEDTAVYYCAADGYLLYVQHPNGRRYDYWGQGTQVTVSS", "polyreactivity (PSR sort gate)": "low polyreactivity"}]}]}
